The target of test [1] is HLA-A*02:01 (human MHC I heavy chain ectodomain, amino acids 1-278) refolded with human β2-microglobulin (human).
For test [2], the target named is H2-D^b (mouse MHC I heavy chain ectodomain) refolded with human β2-microglobulin (mouse | human). Put plainly: fluorescence polarisation. (In fluorescence polarisation assays a small probe gives low polarisation when free and higher when bound to something large.)
The target is the same in test [3]. Put plainly: SEC. For orientation: SEC sorts molecules by how far they enter the pores of the column.
The target in test [4] is HLA-A*02:01 (human MHC I heavy chain ectodomain, amino acids 1-278) refolded with human β2-microglobulin (human). Put plainly: fluorescence polarisation.

This is an account of results in publication PMC7117912.

Turning to “TAPBPR^Tsn-SL (human TAPBPR lumenal domain with the scoop loop replaced by the corresponding shorter loop of tapasin) (from UniProt Q9BX59 33-401) (domain or fragment)”, in test [1], the dissociation rate constant of fluorescent peptide FLPSDC*FPSF from HLA-A*02:01 (300 nM) with 1 µM TAPBPR and 1000-fold excess of competitor peptide (uncatalyzed 1.90 × 10^-3 s^-1) is 0.0263 s⁻¹. In test [2], the percent of fluorescent peptide released at 1 µM TAPBPR is 12%. In test [3], this substance displayed a reduction of the amount of complex against TAPBPR^wt (SEC peak area) of 40%.

With “TAPBPR^wt (wildtype human TAP-binding protein-related, ER-lumenal domain) (from UniProt Q9BX59 33-401) (domain or fragment)”, the dissociation rate constant of fluorescent peptide FLPSDC*FPSF from HLA-A*02:01 (300 nM) with 1 µM TAPBPR and 1000-fold excess of competitor peptide in test [1] was 0.0158 s⁻¹. This substance displayed a percent of total MHC I-associated peptide dissociated at saturation (3 µM TAPBPR) in test [4] of 80%. In test [2], the percent of fluorescent peptide released at 1 µM TAPBPR stood at 60% and the percent of total MHC I-associated peptide dissociated at saturation (3 µM TAPBPR) was 70%.

As for “TAPBPR^ΔSL (human TAPBPR lumenal domain with the scoop loop replaced by three glycine residues) (from UniProt Q9BX59 33-401) (domain or fragment)”, the dissociation rate constant of fluorescent peptide FLPSDC*FPSF from HLA-A*02:01 (300 nM) with 1 µM TAPBPR and 1000-fold excess of competitor peptide in test [1] came to 0.00852 s⁻¹. This substance displayed a reduction of the amount of complex against TAPBPR^wt (SEC peak area) in test [3] of 90%.
